Reference: the DeepSol protein solubility set

Assay: soluble on expression in E. coli; label from the status in PepcDB or PDB records

Soluble on expression in E. coli, not soluble:
MGSDKIHHHHHHMWFRSKPGKSRAAAKGRDVQSTPKASTDVVLERVRLPVDLLQPGMKVVKLDRPWTEVPVLFQGFTLQTEAEARVLRQYCAWVVVEDEAERLAPVLDQIPHLKQRTTEPLQETRTLEQELPRAADTWSRTQQFVEKLIRDIEQNNDLELASARPLIRSCVDSVKTNASAMFWMARIKHRDAYTAEHCLRVAILTVAFARFLGLPEDDLEVAGMCGLLHDIGKLRVPDEILNKPGPLSPQEYEVMRKHTTLGHELLKQDPSLDPIISDVTLHHHERIDGRGYPQQLPEWQISRFARLIAIVDAYDAMTSDRCYRDGMSPADAVRILYKNRAQQFDADMVEAFIRMIGIYPPGSLVELNTGEVALVVSTHPGRKLKPKVEILLDNNKHPVTPRVMDLGSQTTTDGPVREIKAPLPDGAFGISLEGRVKQLMAKTIANHS, MGSDKIHHHHHHMWFSLTYAIIMHSLTTTRKMLQRLDVYLTSFEWGNFSKSKLSILQAFLKIATKDGYDAVSMRSLAKAVDLKPPTMYSHFPAGKDQIVSSAFRWHYYSFAMAVKEGLSQSETLEEYWSALIRVHIIQQIKHPENDLFDMLMATDRLGSILPTDLRSEMIEWLSFCDFMYESIATDLGIDDAKQKSKIIRVTLDGANSWWKWDDSQENLEECIRYAERIAAGILKI, MGSDKIHHHHHHMWSLMHPYLPATVRKWTNLNLSNHSFSLNTMKTKRLSEFFPGVRSYYIVGEIAIITPKRVNVDYNLVAEKIMQAHPKIKAVYLKKKVKGELRTNELEFLSGERISSTIYKENGVLFYVDINKVYVNPSLSGDRLKNLELVEEGSTVLDAFTGYGAIALNIAHKKRVYVVAGDINIDGLYMLKKSLSLNKIKGMIDIVQYDAHHLPFRDKVFKLSFGDNPTLIIDFKEELCRVSENVVFYILCESEDKANSSLGRTSWIKINDYSKNLFIFKGLVRC, MGSDKIHHHHHHMYDNDLWFATINLPYRQKLELLRIYKTSDEILYNFKNSELIQKYKFDIEKINYIKDEMKKSGMKIVFWNDDDYPKVLKNYDDMPYGLFYMGNIKKLNELNYNVAIVGSRRCTQYGKDITTIISREISINGIGIISGMARGIDTYAHKICLENNGYTCAVLGCGADVIYPKENKNLYCQIIRNGCIISQYKPNTKPLPYNFPIRNKIISGLSNLVLVTEADIKSGSIITASSALEQGKDVGAVPGSVFSKMSRGTNKLIQDGAHVIKDIDDVFGILNFQKINFKKIRNNSSYSSMPENQRQIYDLVSDKPIHVDDIKRCLNIDIQELYELLFEMQLKNKILCLSGSYYVRVNDCL, MGSDKIHHHHHHMYFELKENRPHGTPENPFSQYHISDVKRAFQIPVHWHDELEIIYVKQGKLHVTISGENYIGSPKDAFVVSPGSLHLMGSPTGDADYYTFLFPLEYISFQTDDLMEKSILSPLKRGRLMISPQINDTAADICERLIEINEQISGKNAEKTDAANIEAQFETKITLIKFIRKMWRNGLILENGTNGTNTTEKEMITYIRQNYTREISLKEFGAQFHLSEKYISRYFKEHFHITLSQYVNHLRLEHARQLLEESTASVTEVAMCSGYQNVSYFIRSFKKMYGVSPLKYRNFQTLP, MGSDKIHHHHHHMYGNKIVFSGLENIKDCCKMKITRDELLIAAFKLFMSVNYEKASFAELGKMLGMSKAGIFKYYKNKQELFIAVVDKFWFSTQNPRNKFTETNGTFAEFIDEYVRGVQRTMDMLGDLIGAEREKVAQGKFTYHAQYFHFLFQLLQYDPDAKEKLRNLVEVDYAYWRAAIQRAIATGELREDVDVEDAVVMFRQVYMGLSFEMAFMGGLNTQRLAKHLHAVYSLLKR, MGSDKIHHHHHHMYNEYQPSLLLAPYIDKYWEFKGNPDYGMKINILPDGCTDFIFTLGEVADIAEQESLIMQPYRSYFVGPMSRYSTLITYAKSIHMFGIRFLPCGLFRFMQLPLEELGNQRISTFESGGIFNDSLAERLCEQPYIQDKIRLIESFLTQALCTNNKIEKQISYAVDCINLSKGQLPIRSLVENVCLCQRHFERKFKHQTGYSPKEYSRIIKFKNAVDLLRSTSSNQLFSVAIEAGYYDTAHLSKEIKALSGNTPGSFLSLPVTEETTLTYLKL, MGSDKIHHHHHHMYPGCRLCINIGDQFARSVYYGRYKVIPIRTEIIKFCETMGFDYMGAIIWQKVTTTNTTGGATIMGSFPYPRNGILKLDYEFILFFKKQGNAPKPTREQKERSVISKEDWNTYFSGHWYFSGVKQEGHIAMFPEELPARLIKMFAFVGDTVLDPFLGSGTTSMAARNLERNSIGYEINQDFIPAIRQKLNVCQMDIHGAEYSFLEDSATIDCEQEIEKLPYVFKDPHKLDKKIDPKKLLFGSKIDRNSADREEYFSVKEVISPEVIRLSNGLLIRLMGVRENTAMNGLAVNFITEKTKGQKIFLKFDLQKHDSQNRLLCYVYLKNKTFLNAHLIKEGLAIVDRSVDFRYKDKFMKLEAQCG, MGSDKIHHHHHHMYPRYSEINVKEALSDTPVVFVMGPRQAGKTTLVKSLIMDMGSENWTYITLDDQAQFEIAQADPVGFVRNLPSTRIALDEVQRLPELFVSIKQAVDEQRSPGRFLLTGSANALLLPRLSDSLAGRMESVRLMTLSECEIQGRQPSFLIKLLREEAPSTQDIRVRDHLLQRLVTGCFPEPLQRANERRRQAWYQQYTSTLIQRDIRDLTHIDHPDLMAKLLKLTAFYAGKLVNLTELGGKLGLDRLTIKKYMALLEQLFLVEQLPAWHSNEYKRLVKTPKLHPVDTGMMCAVRGLNQERLLKQPGDFGLVLESFVYNELRKQSVWIDEPLNFYHYRDKDKVEVDVVIENTMGDCFAIEIKAAATLNTKDFTGLKRFQSVAGDRFKIGVLLYDGDHTTAFGDNLYAVPVGALWS, MGSDKIHHHHHHMYQELPPLPWLRAFDASARLGNFTLAAQELGLTPSAVSYQVRGLEATLGHKLFVRKQKSLFLTRLGQAYLPVVSKAFGDLEATTSNLFGKSAAQEITLRCLSSLNMLWLAPRLSRFQAQHPDCRLRVLSALWGETPEALQIDIDIRYGNGSWSDGEVTRLMHHEVLAVCAPALHPGPDPQAIASCPLIEVIGVTDTWHHFFALHGLAPPSSGPALKVDQSLIALELATRGMGVALIARVFAQRYLESGALVEATDLALPAREGHYIVQPEARNHFRPEVAALKDWLLQEAAQTGC, MGSDKIHHHHHHMYQVPLEMICRHDRTAEVCRAAVEEDGWQLENVPEEMKTPELCRKALETEAGFGNDFHRGLVQHIPSPEVCMEVLKECRENNPEELYGVAVAIRPEVMNGEMADFLLPLDGRCISILPVHLQTPERVRVAVETSGMSAVGRGGVPKSLLTPDVYVRCAAHSRESLMMIPWAERSPEVCLMAKTLYPDIVKNHPEFVPESVRNQDSIYTLNSLMESLTGEKFSYRQMTDFYNGKPLDVKRMETPDGVQKDKAVKFDKETGKFSFSDIRQERKRGLKM, MGSDKIHHHHHHMYSDQTYEVIKNRTLENINLDIYKGEGSFLNNMVSGNNLELSKIYLELSKMHKMAFIQDTYNQFLDKRVNEFGVYRKLGTESNGEVEFIGEKGTVINNGTIISYRDLLFVVIKDVTIGSEEGDNSPVQALEVGKKYNLPTNCEFKLVDNISGVTKITNTRSFEGGTDIETDEELKERFYKIQRNQATSGNKAHYEEWALEVDGVYNVKVYPRWDGPGTVKVLIFGKNNQAVDTETIERCQQHIDEEKPIGPTITVVTPLPIEISISAVMKLEDGYTLDNVKESFLESINTYFRDIRGEIIYTKVMGILINTTGVHDLSNLLINGSTDNITINEDKIPSVTTVNFSEVENQ, MGSDKIHHHHHHMYVAVKGGEKAIEAAHQLQSCRRRGCTDIPELDCSQIEQQLNLAVDRVMTEGNIYDRQLAALAIKQASGDLVESIFLLRAYRSTLPRWGISQPLNTPDMRLERRVSAIFKDLPGGQLLGPTYDYTHRLLDFSLLADGEDPVAPQPDAVYEDEGTREHIPHAFQFLAQQHLVPERNISDDSNPSDITMEPPSYPGTRAARLQQLFRGDEGFLLSLGYSTQRGYGRNHPFVSEIRTGYITVSIVAEEVGFAIDIGEILLTECETVNGFVKPANDAPHFTRGYGLAFGRSERKAITVALADRALQAADYQEEVRGPAQDEEFVLSHADNVEAAGFVSHLKLPHYVDFQSELELLKRLREEYLASVPRSKA
